Target: GST-tagged full-length cortactin (UniProt Q60598)
Test: pull-down

Chain of UniProt Q60598 (Q60598 whole entry): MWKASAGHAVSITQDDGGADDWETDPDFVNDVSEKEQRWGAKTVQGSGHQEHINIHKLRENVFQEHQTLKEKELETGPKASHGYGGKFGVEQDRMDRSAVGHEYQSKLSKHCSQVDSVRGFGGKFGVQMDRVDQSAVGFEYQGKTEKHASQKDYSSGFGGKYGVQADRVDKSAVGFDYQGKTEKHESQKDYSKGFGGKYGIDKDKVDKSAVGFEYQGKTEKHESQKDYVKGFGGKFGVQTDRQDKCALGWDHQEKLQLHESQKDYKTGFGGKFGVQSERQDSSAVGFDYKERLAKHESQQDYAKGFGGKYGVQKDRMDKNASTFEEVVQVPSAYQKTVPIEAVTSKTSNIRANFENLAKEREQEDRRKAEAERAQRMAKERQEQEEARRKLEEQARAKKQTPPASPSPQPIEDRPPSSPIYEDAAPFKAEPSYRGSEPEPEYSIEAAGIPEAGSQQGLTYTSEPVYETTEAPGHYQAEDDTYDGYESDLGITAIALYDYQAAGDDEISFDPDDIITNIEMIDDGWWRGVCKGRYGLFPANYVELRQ

actin filaments (from UniProt P68139 1-377) (natural protein)
Ki: 461 nM

Reference: publication PMC4555817
